Legend:
[1] = target: T1, human ST6Gal I (Homo sapiens, UniProt P15907); test: Sialyltransferase activity of human ST6Gal I toward acceptor substrates (comparison); assay type: biochemical; conditions: incorporation with Galβ1,4GlcNAc taken as 100; 0.5 mg/ml glycolipids, 1 mg/ml glycoproteins and oligosaccharides
T1 sequence (P15907 1-406): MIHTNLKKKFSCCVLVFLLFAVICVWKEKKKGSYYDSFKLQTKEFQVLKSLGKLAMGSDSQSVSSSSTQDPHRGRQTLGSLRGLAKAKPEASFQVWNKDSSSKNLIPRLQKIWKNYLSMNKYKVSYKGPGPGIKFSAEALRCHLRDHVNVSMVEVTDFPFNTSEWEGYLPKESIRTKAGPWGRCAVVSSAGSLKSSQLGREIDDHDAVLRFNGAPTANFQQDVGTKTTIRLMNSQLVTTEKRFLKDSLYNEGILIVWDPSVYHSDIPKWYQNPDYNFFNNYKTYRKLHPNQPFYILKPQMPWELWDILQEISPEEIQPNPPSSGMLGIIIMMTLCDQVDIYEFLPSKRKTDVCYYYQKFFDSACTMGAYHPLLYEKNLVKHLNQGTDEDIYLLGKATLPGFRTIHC
Method: Using each expression vector and lipofectamine (Invitrogen), transient expression was carried out in COS-7 cells (Kojima, N. et al. (1995) FEBS Lett. 360, 1-4). The proteins of the present invention secreted from the cells into which each expression vector had been introduced were named as PA-hST6Gal II (human) and PA-mST6Gal II (mouse). PA-hST6Gal II and PA-mST6Gal II were adsorbed to IgG-Sepharose (Amersham Pharmacia Biotech), and were then recovered from medium. Sialyltransferase activity was measured as follows according to the method of Lee et al. (Lee, Y.-C. et al. (1999) J Biol. Chem. 274, 11958-11967). A reaction mixture (10 μl) containing 50 mM MES buffer (pH 6.0), 1 mM MgCl2, 1 mM CaCl2, 0.5% Triton CF-54, 100 μM CMP-[^14C]-NeuAc, a substrate sugar chain (which was added at 0.5 mg/ml in the case of glycolipids, and at 1 mg/ml in the case of glycoproteins or oligosaccharides), and a PA-hST6Gal II or PA-mST6Gal II suspension, was incubated at 37° C. for 3 to 20 hours. Thereafter, in the case of glycolipids, the reaction product was purified with a C-18 column (Sep-Pak Vac 100 mg; Waters) and the purified product was used as a sample. In the case of oligosaccharides or glycoproteins, the reaction product was directly used as a sample. Thus, the obtained sample was subjected to analysis. In the case of oligosaccharides or glycolipids, the sample was spotted on a silica gel 60 HPTLC plate (Merck), and it was then developed with a developing solvent consisting of 1-propanol:ammonia water:water=6:1:2.5 (for oligosaccharides), or a developing solvent consisting of chloroform:methanol: 0.02% CaCl2=55:45:10 (for glycolipids). In the case of glycoproteins, analysis was carried out by SDS-polyacrylamide gel electrophoresis. The obtained radioactivities were visualized with a BAS2000 radio image analyzer (Fuji Film) and then quantified.
In contrast, there were no glycolipids, which could be substrates of both the enzymes, as far as the inventors have examined. The activity of human ST6Gal I on oligosaccharides was also examined for comparison. […] (FIG. 10).

[2] = target: T2, PA-mST8Sia VI (mouse ST8Sia VI) (Mus musculus, UniProt Q8K4T1); test: Sialyltransferase activity of PA-mST8Sia VI toward acceptor substrates; assay type: biochemical; conditions: for Relative rate (%) Mouse ST8SiaVI: incorporation with Fetuin taken as 100, substrate 0.5 mg/ml glycolipids, 1 mg/ml glycoproteins, monosaccharides and oligosaccharides
T2 construct: amino acids 26-398 in the case of mouse ST8Sia VI; signal peptide of mouse immunoglobulin IgM (N); made in house; host or cells: COS-7 cells, transient expression of pcDSA-mST8Sia VI; protein recovered from medium on IgG-Sepharose
T2 sequence (Q8K4T1 26-398): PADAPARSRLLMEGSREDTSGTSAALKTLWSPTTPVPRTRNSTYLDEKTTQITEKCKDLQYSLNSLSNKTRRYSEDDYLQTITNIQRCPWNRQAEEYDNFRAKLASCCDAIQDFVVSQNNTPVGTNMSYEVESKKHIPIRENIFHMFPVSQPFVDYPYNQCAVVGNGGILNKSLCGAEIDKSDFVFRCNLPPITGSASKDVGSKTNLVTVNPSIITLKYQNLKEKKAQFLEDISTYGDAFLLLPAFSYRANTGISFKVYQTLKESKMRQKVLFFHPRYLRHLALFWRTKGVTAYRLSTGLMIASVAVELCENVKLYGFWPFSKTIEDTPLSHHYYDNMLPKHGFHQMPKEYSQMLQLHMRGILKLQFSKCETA
How it was run: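 Protein A-tagged mouse or human enzyme secreted from transiently transfected COS-7 cells, captured on IgG-Sepharose. Reaction at pH 6.0 (MES, MgCl2, CaCl2, Triton CF-54) with 100 μM CMP-[^14C]-NeuAc and acceptor (0.5 mg/ml glycolipids; 1 mg/ml glycoproteins/oligosaccharides), 37 °C for 3–20 h; products resolved by HPTLC or SDS-PAGE and radioactivity quantified.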

| Molecule | Relative rate (%) Human ST6Gal I [1] | Relative rate (%) Mouse ST8SiaVI [2] | activity of PA-mST8Sia VI on the substrate (in words) [2] | Km [2] | Vmax value [2] |
| --- | --- | --- | --- | --- | --- |
| Asialo- α1-Acid glycoprotein: desialylated α1-acid glycoprotein prepared at 80° C. for 1 hour in 0.02 N HCl | 93.0% | 0% |  |  |  |
| Galβ1,4Glcβ1-Cer [Lactosylceramide] | 0% | 0% |  |  |  |
| Fetuin: glycoprotein acceptor substrate containing both O-glycans and N-glycans, purchased from Sigma | 13.0% | 100% | showed activity |  |  |
| NeuAcα2,3Galβ1,4Glcβ1-Cer [GM3] | 0% | 13.0% | showed activity | 500 µM | 0.67 pmol/h/ml enzyme solution |
| α1-Acid glycoprotein: glycoprotein acceptor substrate purchased from Sigma | 37.1% | 0% |  |  |  |
| Galβ1,3GalNAcβ1,4(NeuAcα2,3)Galβ1,4Glcβ1-Cer [GM1a] | 0% | 0% |  |  |  |
| Asialofetuin: asialo glycoprotein acceptor substrate purchased from Sigma | 95.0% | 0% |  |  |  |
| Ovomucoid: glycoprotein acceptor substrate which contains only N-glycans (protein, UniProt P01005 25-210, looked up) Ovomucoid: AEVDCSRFPNATDKEGKDVLVCNKDLRPICGTDGVTYTNDCLLCAYSIEFGTNISKEHDGECKETVPMNCSSYANTTSEDGKVMVLCNRAFNPVCGTDGVTYDNECLLCAHKVEQGASVDKRHDGGCRKELAAVSVDCSEYPKPDCTAEDRPLCGSDNKTYGNKCNFCNAVVESNGTLTLSHFGKC | 9.0% | 6.2% | showed activity |  |  |
| Asialoovomucoid: desialylated ovomucoid prepared at 80° C. for 1 hour in 0.02 N HCl (protein, UniProt P01005 25-210, looked up, desialylated, desialylated ovomucoid prepared at 80° C. for 1 hour in 0.02 N HCl) Ovomucoid: AEVDCSRFPNATDKEGKDVLVCNKDLRPICGTDGVTYTNDCLLCAYSIEFGTNISKEHDGECKETVPMNCSSYANTTSEDGKVMVLCNRAFNPVCGTDGVTYDNECLLCAHKVEQGASVDKRHDGGCRKELAAVSVDCSEYPKPDCTAEDRPLCGSDNKTYGNKCNFCNAVVESNGTLTLSHFGKC | 12.7% | 0% |  |  |  |

From patent publication US20060057696A1, “Sugar chain synthases” (priority 2002, published 2006)
